Data as given in patent US20250387492A1, “HSP90-TARGETING CONJUGATES AND FORMULATIONS THEREOF” (Fusion Pharmaceuticals Inc., priority 2018, published 2025).
Several values for one entry are separate records, joined by “and”; a condition that tells them apart may be missing. Equal entries are not always repeated. Where two headings read alike, the source gives them in different places.

Assays:
[1] = tested on: NCI-H460 tumor-bearing mice; assay: H460 mouse tumor and plasma pharmacokinetics; type: in vivo; conditions: 25 mg/kg IV; 1 h; individual animals
[2] = H460 mouse tumor and plasma pharmacokinetics; type: in vivo; conditions: mouse, 25 mg/kg IV, mean of 3 animals
[3] = tested on: NCI-H460 tumor-bearing mice; assay: H460 mouse tumor and plasma pharmacokinetics; type: in vivo; conditions: 25 mg/kg IV, individual animals
Protocol: (§1) Conjugate accumulation at 24 and 48 h in tumor and plasma of NCI-H460 tumor-bearing mice (lung cancer). Conjugate 1 was dosed at 25 mg/kg intravenously.

[4] = H460 mouse tumor and plasma pharmacokinetics; type: in vivo; conditions: mouse, 25 mg/kg IV, mean of 3 animals; remark: listed apart in the source
Protocol: as §1

[5] = Lu levels in tumor, kidney and liver of mice at 0.5 mg/kg
H69 tumor model mice = assay: Biodistribution in H69 tumor model; conditions: 5 mg/kg; 24 h; H69
From the text: (§2) In other studies, biodistribution of the conjugates was studied with H460 and H69 tumor models.

[6] = Biodistribution in H69 tumor model; conditions: mouse, in vivo, 5 mg/kg, Tumor Levels, 24 h, H69, 5 mg/kg; H69
From the text: as §2

[7] = Plasma profile in male SD rats; type: in vivo, rat; conditions: 5 mg/kg IV; for Vd: male, SD, iv, 5 mg/kg
Protocol: Plasma profile for Conjugate 1 at 5 mg/kg dose (via IV) in male SD rats was obtained. Plasma profile for lutetium from Conjugate 1 was also measured.

[8] = Biodistribution in H460 tumor model; conditions: mouse, in vivo, 5 mg/kg, Tumor Levels, 24 h
From the text: as §2

H460 tumor model mice = assay: Biodistribution in H460 tumor model; conditions: 5 mg/kg
From the text: as §2

[9] = Biodistribution in healthy rat tissues; type: in vivo; conditions: 5 mg/kg, healthy rats; for level at time molar: rat
Protocol: Biodistributions of the conjugates were studied. Conjugate 1 was dosed at 5 mg/kg to healthy rats. The amount of Conjugate 1 and lutetium from Conjugate 1 in rat spleen, kidney, brain, liver and bone marrow was measured.

[10] = plasma, read-out: Compound 1 Conc. in NCI-H460 Mouse Plasma, Mean
[11] = tumor, read-out: Compound 1 Conc. in NCI-H460 Mouse Tumor, Mean
[12] = H460 and H69 tumor models, Conjugate 1 vs Conjugate 2

## CCNC(=O)c1nnc(-c2cc(C(C)C)c(O)cc2O)n1-c1ccc(CN2CCN(C(=O)CN3CCN4CCN5CCN(CC3)CC(=O)[O][Lu]([O]C(=O)C5)[O]C(=O)C4)CC2)cc1 [Conjugate 1]
[1]
  Compound 1 Conc. in NCI-H460 Mouse Tumor: 9.30 µM and 7.05 µM and 11.1 µM
[2]; [10]
  level at time molar at 1 h: 3360 nM
[2]; [11]
  level at time molar at 1 h: 9130 nM
[3]; 1 h
  Compound 1 Conc. in NCI-H460 Mouse Plasma: 1.07 µM and 1.04 µM and 7.98 µM
[3]; 24 h
  Compound 1 Conc. in NCI-H460 Mouse Plasma: 0.020 μM (2×) and 0.046 μM
  Compound 1 Conc. in NCI-H460 Mouse Tumor: 3.85 µM and 4.01 µM and 4.26 µM
[3]; 48 h
  Compound 1 Conc. in NCI-H460 Mouse Plasma: 0.016 µM and 0.013 µM and 0.020 µM
  Compound 1 Conc. in NCI-H460 Mouse Tumor: 1.95 µM and 3.09 µM and 3.10 µM
[4]; [10]
  level at time molar at 24 h: 29 nM
  level at time molar at 48 h: 16 nM
[4]; [11]
  level at time molar at 24 h: 4040 nM
  level at time molar at 48 h: 2710 nM
[5]
  Average Lu in Liver: 23.85 % ID/g
  Average Lu in kidney: 1.00 % ID/g
  Average Lu in tumor: 1.28 % ID/g
H69 tumor model mice
  Tumor:liver ratio, 24 h, H69: 0.18
[6]
  level at time molar at 24 h: 1610 nM
[7]; analyte Conjugate 1
  t1/2: 1.45 H
[7]; analyte Lu from Conjugate 1
  t1/2: 0.56 H
[7]; rat, analyte Conjugate 1, read-out: Vss_obs
  Vd: 0.483 L/kg
[7]; rat, analyte Conjugate 1, read-out: Vz_obs
  Vd: 1.44 L/kg
[7]; rat, analyte Conjugate 1
  AUC(0-t): 7.31 µM·h
  Cmax: 14200 nM
[7]; rat, analyte Conjugate 1, read-out: AUC 0-inf_obs
  AUC(0-inf): 7.34 µM·h
[7]; rat, analyte Conjugate 1, read-out: Cl-obs
  clearance: 11.1 mL/min/kg
[8]; H460 (1), H460 study (1)
  level at time molar at 24 h: 1740 nM
[8]; H460 (2), H460 study (2)
  level at time molar at 24 h: 2490 nM
H460 tumor model mice; 24 h, H460 study (1)
  Tumor:liver ratio, 24 h, H460 (1): 0.16
H460 tumor model mice; 24 h, H460 study (2)
  Tumor:kidney ratio, 24 h, H460 (2): 1.8
  Tumor:liver ratio, 24 h, H460 (2): 1.2
H460 tumor model mice; H460 and H69 tumor models
  Clearance from plasma: clear rapidly from plasma
H460 tumor model mice; [12]
  Tumor retention (comparison): similar
  Tumor uptake (comparison): noticeably higher than Conjugate 2
H460 tumor model mice; H460 tumor model
  tumor:kidney ratio: around 2
H460 tumor model mice; at 24 h, across H460 and H69 tumor models
  tumor:liver ratios: 0.1-1
[9]; individual animals A1-A3
  Conjugate 1 Conc., Bone marrow: 0.063 µM and 0.664 µM and 0.838 µM
  Conjugate 1 Conc., Kidney: 7.75 µM and 7.50 µM and 8.05 µM
  Conjugate 1 Conc., Liver: 1.50 µM and 2.46 µM and 3.33 µM
  Conjugate 1 Conc., Spleen: 0.148 µM and 0.134 µM and 0.232 µM
  Lu from Conjugate 1 Conc., Bone marrow: 0.030 µM and 0.021 µM and 0.022 µM
  Lu from Conjugate 1 Conc., Brain: <BLQ
  Lu from Conjugate 1 Conc., Kidney: 3.93 µM and 4.14 µM and 4.44 µM
  Lu from Conjugate 1 Conc., Liver: 2.34 µM and 2.25 µM and 3.47 µM
  Lu from Conjugate 1 Conc., Spleen: 0.154 µM and 0.163 µM and 0.198 µM
[9]; mean
  Lu from Conjugate 1 Conc., Bone marrow, Mean: 0.024 µM
  Lu from Conjugate 1 Conc., Brain, Mean: <BLQ
  Lu from Conjugate 1 Conc., Kidney, Mean: 4.17 µM
  Lu from Conjugate 1 Conc., Spleen, Mean: 0.172 µM
[9]; bone marrow, mean, read-out: Conjugate 1 Conc., Bone marrow, Mean
  level at time molar: 522 nM
[9]; brain, individual animals A1-A3, read-out: Conjugate 1 Conc., Brain
  level at time molar: 37 nM
[9]; brain, mean, read-out: Conjugate 1 Conc., Brain, Mean
  level at time molar: 49 nM
[9]; kidney, mean, read-out: Conjugate 1 Conc., Kidney, Mean
  level at time molar: 7770 nM
[9]; liver, mean, read-out: Conjugate 1 Conc., Liver, Mean
  level at time molar: 2430 nM
[9]; spleen, mean, read-out: Conjugate 1 Conc., Spleen, Mean
  level at time molar: 171 nM
